Laboratory results as given in patent publication US20230031853A1.

How the values were obtained:
splitGFP(1-10) [1] = assay: cell-based or functional assay
splitGFP(1-10) [2] = assay: in vitro splitGFP complementation, fluorescence; reference pAbBD-S11

| Substance | fold-increase in median splitGFP fluorescence, flow cytometry 6 hours after electroporation into HEK293T splitGFP(1-10) cells (splitGFP(1-10) [1]) [fold] | fluorescence relative to pAbBD-S11 (splitGFP(1-10) [2]) [fold] |
| --- | --- | --- |
| Ritux-(pAbBD-S11)2 (antibody) | 39.4 | 2 |
| pAbBD-S11 | 33.5 | – |
